Assays:
[1] = target: T1, SARS-CoV Nucleocapsid Protein(His Tag), 货号40143-V08B (SARS-CoV, UniProt P59595 1-422); test: ELISA, cross-reaction test
T1 construct: also called SARS病毒的N蛋白; SARS-CoV-NP

[2] = target: T2, MERS-CoV Nucleocapsid Protein(His Tag), 货号40068-V08B (MERS-CoV, UniProt K9N4V7 1-411); test: ELISA, cross-reaction test
T2 construct: also called MERS病毒的N蛋白; MERS-CoV-NP

B1: 单克隆抗体Mouse anti-SARS-COV-2 Mab4(NP-Ab) (antibody, V domains shown)
VH: VKLQESGPELKKPGETVRISCKASGYTLTDYSIHWVKQAPGKGLKWMGWINTETVEPTYTDDFKGRFAFSLETSASTAYLQINNLKNEDTATYFCASTGTEFDYWGQGTTLTVSS
VL: DVVMTQTPLSLPVSLGDQASISCRSSQSLVHITGNTYLHWYLQKPGQSPKLLIYKVSNRFSGVPDRFSGSGSGTDFTLKISRVEAEDLGVYFCSQSTHVPLTFGAGTKLELK
notes: also called A1-1; A1-1号抗体
B1: no binding [1]; no binding [2].

Reference: patent CN113912710A (SURE BIOTECH HANGZHOU LTD, dated 2022)
